Experimental data as given in the DeepSol protein solubility set.

assay: soluble on expression in E. coli; label from the status in PepcDB or PDB records

Row | Sequence | soluble on expression in E. coli
1 | MKFDNKAPIYIQIMDKIKIDIINGTLKPGDKLPSVREMAVKFKVNPNTLQRVYQELERENITYTQRGTGSFVREDSDMIINLKKEMASEVIENFIENIKEFGFGNKDILKIVEDKLNEEEK | soluble
2 | MKFETINQESIAKLMEIFYEKVRKDKDLGPIFNNAIGTSDEEWKEHKAKIGNFWAGMLLGEGDYNGQPLKKHLDLPPFPQEFFEIWLKLFEESLNIVYNEEMKNVILQRAQMIASHFQNMLYKYGGH | soluble
3 | MKFHVIDRENWNREQYFEHYLELKCTFSMTVNVDITLLIKKVHQKGIKFYPTFIYIISRIINKHKEFRTCFNDEGVLGYWEEMIPSYTIFHKDDKSFSSIWTDYSSDFRIFYKNYEEDMRCYASVHGLLTKENIPPNIFPISGIPWTSFTGFNLNINNDGDFLLPIITCGKYFNEENKIMLPVSLQVHHSVCDGYHVSRFIEDLQELSNSCNEWLK | not soluble
4 | MKFIIEALKRVRERRPLVHNITNFVVMNTTANALLALGASPVMAHAEEELEEMIRLADAVVINIGTLDSGWRRSMVKATEIANELGKPIVLDPVGAGATKFRTRVSLEILSRGVDVLKGNFGEISALLGEEGKTRGVDSLEYGEEEAKKLTMNAAREFNTTVAVTGAVDYVSDGRRTFAVYNGHELLGRVTGTGCMVAALTGAFVAVTEPLKATTSALVTFGIAAEKAYEEAKYPGSFHVKLYDWLYRINENVIRTYAKVREVEL | soluble
5 | MKFIIKLFPEITIKSQSVRLRFIKILTGNIRNVLKHYDETLAVVRHWDNIEVRAKDENQRLTIRDALTRIPGIHHILEVEDVPFTDMHDIFEKALVQYRDQLDGKTFCVRVKRRGKHDFSSIDVERYVGGGLNQHIESARVKLTNPDVTVHLEVEDDRLLLIKGRYEGIGGFPIGTQEDVLSLISGGFDSGVSSYMLMRRGCRVHYCFFNLGGAAHEIGVRQVAHYLWNRFGSSHRVRFVAINFEPVVGEILEKIDDGQMGVILKRMMVRAASKVAERYGVQALVTGEALGQVSSQTLTNLRLIDNVSDTLILRPLISYDKEHIINLARQIGTEDFARTMPEYCGVISKSPTVKAVKSKIEAEEEKFDFSILDKVVEEANNVDIREIAQQTGQEVVEVETVNDFGPNDVILDIRSVDEQEDKPLKVEGIDVVSLPFYKLSTKFGDLDQNRTWLLWCERGVMSRLQALYLREQGFKNVKVYRP | not soluble
6 | MKFKKLFSRLLLATGIMFAGTFTYQNIEHTHVSKAASYNYYTKGQCTWWAYQRRAQLGKPVSNRWGNAKNWYYNAKRSGYRTGHTPKRYAVMQSTAGYYGHVAVVERVYSNGSIKVSEYNYNRPSAYGTRYLSKWSARNYNYIYLEHHHHHH | not soluble
7 | MKFPGQRKSKHYFPVHARDPLVSQAQEAKKMSRTHIIGIDQTLVDIEAKVDDAFIEKYGLSKGHSLVIDNDKAEMLYNELKDNNMISNEFAGGTIGNTLHNYSVLADDKSTLLGVMSEDIHIGSYSYRYLCNTSSRMDLNYLQPVPGAIGRCFALISEDGERTFAISEGDMNQLRAESIPEKIFKNASALVLTAYLVRCKEGDPMPEATMKAIEYAKKYDVPVVLTMGTKFVVQDDPQYWRDFLNDHVTVVAMNEEEGEALTGATDPLEAANKTLEWVDLVLCTAGPVGLYMAGYTEDSAKRETSLPLLPGTIAEFNQFEFSRPAVKDSCENPIKVFSHISPYMGGPEKIKNTNGAGDGALSALLHDMAANHYHRNNVPNSSKHQHSFLTYSSFSQVCKYSNRVSFEVLAQHSPRLSRGLPEREDSLEEAYWER | not soluble
8 | MKFTFEVPAPLQQVAPISYYESLLSNYRYRDISFLEMSTTGKILGECTIGENNYTIQGSECDGLISSIEILDVKEADSFLDIPLSLPNRKFVKALKDLGIEFDHDRDGVTIHHENRVIALSYQFGKVAAICWDSE | not soluble
9 | MKFVLAVHGTRGDVEPCAAVGVELRRRGHAVHMAVPPNLIEFVESAGLTGVAYGPDSDEQINTVAAFVRNLTRAQNPLNLARAVKELFVEGWAEMGTTLTTLADGADLVMTGQTYHGVAANVAEYYDIPAAALHHFPMQVNGQIAIPSIPTPATLVRATMKVSWRLYAYVSKDADRAQRRELGLPPAPAPAVRRLAERGAPEIQAYDPVFFPGLAAEWSDRRPFVGPLTMELHSEPNEELESWIAAGTPPIYFGFGSTPVQTPVQTLAMISDVCAQLGERALIYSPAANSTRIRHADHVKRVGLVNYSTILPKCRAVVHHGGAGTTAAGLRAGMPTLILWDVADQPIWAGAVQRLKVGSAKRFTNITRGSLLKELRSILAPECAARAREISTRMTRPTAAVTAAADLLEATARQTPGSTPSSSPGR | not soluble
10 | MKGDRLADIRTIGVVVLYRPDSSVLDAIASYRHQVHELIVVDNSEEQDHKLHSRLRDRFGATIVGEGRNLGIAAALNRAAREALAEGFDLLLTMDQDSRAEPGMVEQMLACLGSDWRERVGLIAPFHLTGARPAPGGTTPCSDVMTPMTSGCLVNLAAFREVGPFRDDFFIDFVDNEYCLRLRKKGFQVVRANRALLHHRVGDLRRYGPFVATHHSPLRRYYKTRNRCAVFAEYLRDFPVHCLFDLVRLGKEVASILIFEREKTAKLRMMWRGFLDFRRGRFGPYGGLEHHHHHH | not soluble
11 | MKGIARLVTSLSRIGGRKVVSGTSTVTSSSSSSLLLSRRSLFISATNLLNSRTKDSALPSLNSSLLAQKWNFLGGQRRTMFIQTQSTPNPSSLMFYPGKPVMEVGSADFPNVRSALGSPLAKSIYSIDGVVRVFFGSDFVTVTKSDDVSWDILKPEIFAAVMDFYSSGQPLFLDSQAAAAKDTAISEDDSETVAMIKELLETRIRPAVQDDGGDIEYCGFDPESGIVKLRMQGACSGCPSSSVTLKSGIENMLMHYVSEVKGVEQEFDGEDEEGTLSGEMRVE | not soluble
12 | MKGSASTKPGGSPSTSRTAHPARANTSGNASTSGKQPQGPRAPVHAKGKPKRGGAEAEATESDKVAYTVIITNVENDFGKLHRACLPYYCGLRSDYEGTLDVERLLHEGGPQSRRLIGAVRGCSYAVRCRTETRSAEISLYGPANADFAPMQLTKAPRRPSTPAADAKSMAAPTTSSSEKLAQKDTTAPAEDVSEETALANVGAVEQLALRLRRQHYFEEHLPVSVHLPGRKADEVLLRIDKGSASSDADGTNATGVKNEEANGVAEDADADRRGSAATPVTASASREKRQRVVEEDRNADAPSLQRVKAEAPDGDEEGTEEDSATAHERGKTTENDVDRRADNGGRRSRRLTKSKSATIIAQFPRRQKDFVTAVAALSSRVPLQRVRGRLRDLPGFLSCWSLYERHLRVVFRDAESLFKAKQLLDQFELEPGLRVSLIFSDPLSRTNAEYLRAQENESVNE | not soluble
13 | MKGSRIELGDVTPHNIKQLKRLNQVIFPVSYNDKFYKDVLEVGELAKLAYFNDIAVGAVCCRVDHSQNQKRLYIMTLGCLAPYRRLGIGTKMLNHVLNICEKDGTFDNIYLHVQISNESAIDFYRKFGFEIIETKKNYYKRIEPADAHVLQKNLKVPSGQNADVQKTDN | soluble
14 | MKHHHHHHGKAAGVTLGEVWKRQLNMLGKQEFERYKVSDITEVDRTAARRYLKEGRTDVGISVSRGAAKIRWLHERGYLRITGRVLDLGCGRGGWSYYAAAQKEVMSVKGYTLGIEGHEKPIHMQTLGWNIVKFKDKSNVFTMPTEPSDTLLCDIGESSSNPLVERDRTMKVLENFERWKHVNTENFCVKVLAPYHPDVIEKLERLQLRFGGGIVRVPFSRNSTHEMYYISGARNNITHMVNTTSRSLLRRMTRPSGKAIIEGDVFLPTGTRSVASEAGTIDHEALKLRVDQIKAEYSKT | soluble
15 | MKHHHHHHMTFPGDTAVLVLAAGPGTRMRSDTPKVLHTLAGRSMLSHVLHAIAKLAPQRLIVVLGHDHQRIAPLVGELADTLGRTIDVALQDRPLGTGHAVLCGLSALPDDYAGNVVVTSGDTPLLDADTLADLIATHRAVSAAVTVLTTTLDDPFGYGRILRTQDHEVMAIVEQTDATPSQREIREVNAGVYAFDIAALRSALSRLSSNNAQQELYLTDVIAILRSDGQTVHASHVDDSALVAGVNNRVQLAELASELNRRVVAAHQLAGVTVVDPATTWIDVDVTIGRDTVIHPGTQLLGRTQIGGRCVVGPDTTLTDVAVGDGASVVRTHGSSSSIGDGAAVGPFTYLRPGTALGADGKLGAFVEVKNSTIGTGTKVPHLTYVGDADIGEYSNIGASSVFVNYDGTSKRRTTVGSHVRTGSDTMFVAPVTIGDGAYTGAGTVVREDVPPGALAVSAGPQRNIENWVQRKRPGSPAAQASKRASEMACQQPTQPPDADQTP | soluble
16 | MKHLMKMWNPWWIERKVPASKKRISRPETLETILKLLDIREVICITGVRRCGKSTIMYQAIDHLIGKGVEPENILYFNLDEPFEDKSIGLLDRIFGEYIELHVPKGRKYIFLDEIQNVKDWEQWVKKFYDLHGEDIKFVLTGSNSSMLSDQLSILLTGRMITQHVFPLSFKEYLDFESFELKDPDIQRNEILHYFNKYLFKGGFPEVVLENDMDINHLRLTEYFNSILLRDIVVGRNIRESAKLIELANYSLSNVSTLLSYSKISNATGLSVNSLKEYLLFLEQAYLIYQLNFFSYSVKDSISIKMPKKVYCIDNGLRNSAAFTFSADEGRLAENLAFVELKRRKVEFFYWKEKREVDFVIKGIDGALTGINCTCTDHIRQGEINALLELKEQFGEKVSRLILLTKNLEKKENDISYIPLWKWVLGTRLSK | not soluble
17 | MKHYTVAINGLPQEFEGFTILHLTDLHAKKYGDQQDKLIRLINRQNFDMVAMTGDFIDKDNPDLEPTLELIQGLAAKPIFFVPGNHEWRYDFSIKSSLEEHGVKILDNKNAELARGDARLWIAGVDDPYLHRDKLEEALHGIADAQPKLLLAHAPNIFKPAAESGVELVLVGHTHGGQVRLPLIGAIVAPGQGLFPQYDYGHFTAGSTNMIVNGGLGESTLPLRFCSRPEIVLVKLVSAPLEHHHHHH | not soluble
18 | MKIAALYDIHGNYPALKEVLKQVKKLSPDLVVLGGDLIAGPMPLETLSLLKHVSTTFKTVGIMGNNDQDIVDIYAKKRVGLSRKATEQLTWIANQLSYKQVSFLRNLLPSISIGNYFFCHAVKNDNTTVFSPQQNKAYIETLFKGVQESYIICGHTHIQFELSLPNKKIINAGSIGMPFSNQFGAQWLWLDDNRIEYKRTIFNQQAAIQLISQTEYPFKNEFIANNLRSTISLSQGYSILNTLIRAQNAQHDLSLEHHHHHH | soluble
19 | MKIAALYDIHGNYPALKEVLKQVKKLSPDLVVLGGDLIAGPMPLETLSLLKHVSTTFKTVGIMGNNDQDIVDIYAKKRVGLSRKATEQLTWIANQLSYKQVSFLRNLLPSISIGNYFFCHAVKNDNTTVFSPQQNKAYIETLFKGVQESYIICGHTHIQFELSLPNKKIINAGSIGMPFSNQFGAQWLWLDDNRIEYKRTIFNQQAAIQLISQTEYPFKNEFLEHHHHHH | not soluble
20 | MKIAIIGLGLMGGSLGLCLKENKLISCVYGMDLSKENEKDALQLGLIHELIEFKDLALCDMIFVATPVNAIIEILQKLVDLPSNVTIIELGSTKRKIIESLPKNLIKQTLFAHPMTGTENSGPKAAFKELYKDAVCVLCDSEIADDLHQKRAVEIFSHLGMKIVFMDSKAHDHHAAIISHLPHVISFSLANFVMKEEDKRNIVHLAGGSFKGMSRIAKSSPQMWESIFLQNKDNLLSSIDFFQQELERCKQMIQLDKNDELREWMKQANTLREILMGHHHHHHSH | soluble
21 | MKIAIVGSGNGAVTAAVDMVSKGHDVKLYCRNQSISKFQNAIEKGGFDFNNEGDERFVKFTDISDDMEYVLKDAEIVQVIIPSSYIEYYADVMAEHVTDNQLIFFNMAAAMGSIRFMNVLEDRHIETKPQLAEANTLTYGTRVDFENAAVDLSLNVRRIFFSTYDRSCLNDCYDKVSSIYDHLVKEESLIKTNLENGNPEVHPGPTLLNVGRIDYAGEFALYKEGITKHTVRLLHAIELERLNLGRRLGFELSTAKESRIERGYLERDKEDEPLNRLFNTSPVFSQIPGPNHVESRYLTEDIAYGLVLWSSLGRVIDVPTPNIDAVIVIASTILERDFFEEGLTVEEIGLDKLDLEKYLK | not soluble
